Laboratory results reported in patent US20160272694A1 (EDIMER PHARMACEUTICALS, published 2016).

Target: T1, Recombinant human IgG1 Fc (hFc) (human, UniProt P01857-1 100-330 = IgG part)
T1 construct: domain: Fc; Bought reagent; also called Recombinant Human IgG Fc
Experiment: sandwich ELISA: hEDAR-mFc coated, anti-human IgG (Fc) CH2-HRP detection
Procedure: For validation, ELISA plates (96-well Microtiter Plates, Nunc 96F Maxisorp (Thermo Fisher, Pittsburgh, Pa.)) were coated with 1 μg/mL hEDARmFc coating solution. For the binding step, standards, QCs, Blank (assay buffer alone), and other required samples were added to the appropriate wells of an assay plate. Plates were incubated for approximately 120 minutes and then washed. For the detection step, the detection reagent was added to each required well and the plate was incubated for approximately 60 minutes and then washed. For the substrate step, Ultra TMB (1-Step Ultra TMB-ELISA Substrate (Thermo Scientific, Pittsburgh, Pa.)) was added to each well and the plate was incubated for approximately 20 to 30 minutes. Color development was monitored at 650 nm so that development could be discontinued when the OD of the 250 ng/mL standard was between 1.3 and 1.4. To stop the color reaction, 2N sulfuric acid was added to each well. The OD at 450 nm was determined with the correction wavelength set at 540 nm.

B1: hEDAR-mFc (Fc fusion, human, UniProt Q9UNE0 27-183, looked up)
chain: EYSNCGENEYYNQTTGLCQECPPCGPGEEPYLSCGYGTKDEDYGCVPCPAEKFSKGGYQICRRHKDCEGFFRATVLTPGDMENDAECGPCLPGYYMLENRPRNIYGMVCYSCLLAPPNTKECVGATSGASANFPGTSGSSTLSPFQHAHKELSGQGH
notes: Capture reagent from Edimer Pharmaceuticals, coated at 1 µg/mL; also called capture reagent; not shown: mouse Fc (mFc)
- binding result: no binding (tested: 100 ng/mL)
